Test results taken from paper PMC12409352.

Target: BrxU, untagged (GmrSD-family Type IV restriction enzyme from Escherichia fergusonii) (Escherichia fergusonii)

Work on “IPI* (mature, active form of phage T4 internal protein I, product of ip1) (natural protein)” yielded an in vitro digestion of glc-5mdC pUC19 DNA by untagged BrxU (1 mM ATP) after incubation with a titration of IPI*; excess of IPI* sufficient for robust inhibition of 30 fold excess.
